We go through five substances from patent publication US20160257763A1.

FcRn, sequence (P55899 24-297, chain 1 of 2): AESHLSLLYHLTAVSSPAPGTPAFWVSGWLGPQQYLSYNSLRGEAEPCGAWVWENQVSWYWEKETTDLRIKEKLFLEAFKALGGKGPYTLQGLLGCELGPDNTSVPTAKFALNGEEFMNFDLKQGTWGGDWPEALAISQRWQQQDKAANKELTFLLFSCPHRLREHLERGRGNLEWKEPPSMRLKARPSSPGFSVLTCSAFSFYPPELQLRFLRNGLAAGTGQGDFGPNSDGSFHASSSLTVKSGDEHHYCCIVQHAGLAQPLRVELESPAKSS
FcRn, sequence (P61769 21-119, chain 2 of 2, further chain): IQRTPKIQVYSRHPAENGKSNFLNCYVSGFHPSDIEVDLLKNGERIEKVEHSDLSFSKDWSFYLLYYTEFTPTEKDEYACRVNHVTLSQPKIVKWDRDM

The assay addresses FcRn. As to the kind of experiment: SPR pH 6.0, Ab captured by goat anti-human IgG, FcRn injected.
What is called Kd is the free concentration of one partner at which half of the binding sites on the other are occupied at equilibrium, for simple one-to-one binding. Low readings indicate tighter binding, high ones weaker binding. Consider “T350V_L351Y_S400E_F405A_Y407V / T350V_T366L_N390R_K392M_T394W (antibody)”, for which the equilibrium dissociation constant (Kd) is 5 µM.

In turn, “L351Y_F405A_Y407V / T366L_K392M_T394W (antibody)” came in with a dissociation constant Kd of 5 µM.

“Y349C_T350V_F405A_Y407V / T350V_S354C_T366L_K392M_T394W (antibody)” returned a Kd of 4.1 µM.

The substance “T350V_L351Y_F405A_Y407V / T350V_T366L_K392M_T394W (antibody)” gave a Kd of 4.3 µM.

“T350V_L351Y_F405A_Y407V / T350V_T366L_K392L_T394W (antibody)” gave a Kd of 3.9 µM. The Kd values of the last two substances are within 1.5-fold of each other.
